According to US20250019450A1 (DIAGONAL THERAPEUTICS, published 2025):
Numbering of substitutions follows the chain as printed.

B1: VHH94B2 (VHH)
VHH: EVQLVESGGGLVQPGGSLRLSCAASGFTFSSYAMSWVRQAPGKGLEWVSAINSGGDSTSYADSVEGRFTISRDNAKNTLYLQMNSLKPDDTAVYYCAKWSDCSEYGCYDQTTTEGTQVTVSS
B2: VHH185B2 (VHH)
VHH: QVQLVESGGGLVQAGGSLRLSCAASGRTFSRYRMGWFRQAPGKEREFVAAITKSGATTYDADSVKGRFTISRDNAKNTLYLQMNSLKPEDTAVYYCAASYHSNWWPKNADEYAYWGQGTQVTVSS
B3: VHH361B2 (VHH)
VHH: QVQLVESGGGLVQTGASLRLSCAASGRTFGRYEMAWFRQAPGKEREFVAHISSSGLTTTYADSVKGRFTISRGNALNTVYLQMNSLKPEDTAVYYCAANVDGSAWSTLGAGMDYWGKGTLVTISS
B4: VHH322B2 (VHH)
VHH: QLQLVESGGGLVQAGGSLRLSCAASGRTFGIHGMGWFRQAPGKEREFAAAIRWSDGTTIHADSVKGRLTISRDNAKNTVYLQMNSLKPEDTAVYYCAATSNPQFGRNWYTVAAGVEYGYWGQGTQVTVSS
B5: VHH190B2 (VHH)
VHH: QVQLQESGPGLVKPSQTLSLTCTVSGGSITTNYYYWSWIRQPPGKGLEWMGAIAYSGSTYYSPSLKSRTSISRDTSKNQFTLQLSSVTPEDTAVYYCASGINFYSNYPTLNEYDYWGQGTQVTVSS
B6: VHH68B2 (VHH)
VHH: EVQLVESGGGLVQAGGSLKLSCAASGGTFSSYAMGWFRQAPGKEREFVAAIMRSGDTTVYVDSVKGRFTVSRDNAKNTVYLQMNSLKPEDAAVYYCAAGRPVTRTYYSTYTYPHDYDYWGQGTQVTVSS
B7: VHH278B2 (VHH)
VHH: B6 VHH with E1Q, A50V, V59A, Y95F, S108H
B8: VHH289B2 (VHH)
VHH: B6 VHH with E1Q, D56G, D62N, T103S, Y106S, S108Y, T126S
B9: VHH356B2 (VHH)
VHH: QLQLVESGGGLVQPGGSLRLSCAASGSIFSINAMGWYRQAPGKQRELVAAITSGGSTAYADSVKGRFTISRDNAKNTVYLQMNSLKPEDTAVYYCNADRDPITSWYVRGDYWGQGTQVTVSS
B10: VHH85B2 (VHH)
VHH: QVQLVESGGGLVQAGGSLRVSCAASGRIPSLNTMAWYRQAPGKQREFVAFITNGGTTNYVDSVEGRFSISRDNTKNAVDLQMNSLKPEDTGVYYCNVQISQYPYNYWGQGTQVTVSS
B11: VHH19B2 (VHH)
VHH: QVQLVESGGGLVQPGGSLRLSCAASGFTFSNYAMSWVRQAPGKGLEWVSAINSDGTSTSYADSVKGQFTISRDNAKNTLYLQMNSLKPEDTAVYYCTKWEGDTDSDYKFKDYWGQGTQVTVSS
B12: VHH222B2 (VHH)
VHH: QVQLVESGGGLVQAGGSLRLSCAASGRIFSAYRMGWFRQAPGKEREFVAGITWRGQTTYYAASVKGRFTISKDNAKKTVYLQMNSLKPEETAVYYCAVETNGLGRWDRPSEYDYWGQGTQVTVSS
B13: VHH13B2 (VHH)
VHH: QVQLVESGGGLVRPGGSLRLSCAASGFTFSSNGMHWFRQAPGKGLEWVSSIGSGGTSIYYADSVKGRFTISRDNAKNTLYLQMNSLKSDDTAVYYCSKEVTGATRGQGTQVTVSS
B14: VHH307B2 (VHH)
VHH: QVQLVESGGGLVQAGGSLRLSCAASGRTFSRYIMGWFRQATGKEREFVAAISWSGLSTHYADSVQGRFTISRDNAENTVYLQMNSLKPEDTAVYYCAADRHWETRLLPREYDYWGQGTQVTVSS
B15: VHH64B2 (VHH)
VHH: QVQLVESGGGLVQPGGSLRLSCAASGFTFSSKAMHWFRQAPGKGLEWVSSINSGGAITYYKDSVKGRFTVSRDNAKNILYLEMNSLKPEDTALYYCATDTDGRTRGQGTQVTVSS
B16: VHH230B2 (VHH)
VHH: QVQLVESGGGLVQAGGSLRLSCAASGRTFSSYAMGWFRQAPGKEREFVSAISWSGLSTYYVESVQGRFTISRDNAKNTVYLQMNSLKPEDTAVYYCAASRIYTNYVARSYEYDDWGQGTQVTVSS
B17: VHH194B2 (VHH)
VHH: QLQLVESGGGLVQAGGSLRLSCAASGLTFSGYTVGWFRQAPGKEREFVAAINWSSAYTYSEFVKGRFTISRDNAKNTVYLQMSSLKPEDTAVYYCAARRSRTSWYASTAEAYDYWGQGTQVTVSS
B18: VHH294B2 (VHH)
VHH: B17 VHH with R98Q
B19: VHH67B2 (VHH)
VHH: QVQLVESGGGLVQPGGSLRLSCAASGFTFSNYAMSWIRQGPERGFEWVSRINSGGGTTSYADSVKGRFTISRDNAKNTLYLQMNSLKPEDTAVYYCAKHSHPDYSSNYYRPGQGTQVTVSS

Experiments:
[1] = molecular target: T1, human IL-12Rβ2-huFc-his (R&D system), biotinylated (human, UniProt Q99665 24-622, limits assumed, biotinylated); experiment: ELISA, periplasmic extract
T1 construct: bought; captured on Neutravidin in the ELISA; also called Bio-huIL-12Rβ2-huFc-His
T1 sequence (looked up): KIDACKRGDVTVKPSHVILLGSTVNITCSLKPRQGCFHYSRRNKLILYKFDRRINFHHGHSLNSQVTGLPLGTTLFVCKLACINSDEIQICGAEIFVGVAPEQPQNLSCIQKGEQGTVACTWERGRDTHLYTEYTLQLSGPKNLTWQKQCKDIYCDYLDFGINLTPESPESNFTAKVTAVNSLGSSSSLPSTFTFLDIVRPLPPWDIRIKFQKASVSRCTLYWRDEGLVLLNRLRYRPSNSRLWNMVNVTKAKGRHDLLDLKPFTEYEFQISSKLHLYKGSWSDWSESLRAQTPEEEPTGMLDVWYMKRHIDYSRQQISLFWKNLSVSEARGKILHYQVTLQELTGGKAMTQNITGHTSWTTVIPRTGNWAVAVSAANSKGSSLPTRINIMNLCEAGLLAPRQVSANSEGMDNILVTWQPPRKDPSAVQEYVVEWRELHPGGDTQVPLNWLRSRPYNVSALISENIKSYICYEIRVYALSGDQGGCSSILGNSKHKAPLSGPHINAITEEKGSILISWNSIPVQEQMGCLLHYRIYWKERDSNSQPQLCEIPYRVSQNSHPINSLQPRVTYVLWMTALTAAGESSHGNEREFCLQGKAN

[2] = molecular target: T2, cyno IL-12RB2 with C-terminal HA tag, transiently expressed on HEK-293T cells (cyno, UniProt A0A2K5VNI7 24-860); experiment: FACS, periplasmic extract, HEK-293T
T2 construct: whole, on cells; also called cyno IL-12Rβ2
T2 sequence: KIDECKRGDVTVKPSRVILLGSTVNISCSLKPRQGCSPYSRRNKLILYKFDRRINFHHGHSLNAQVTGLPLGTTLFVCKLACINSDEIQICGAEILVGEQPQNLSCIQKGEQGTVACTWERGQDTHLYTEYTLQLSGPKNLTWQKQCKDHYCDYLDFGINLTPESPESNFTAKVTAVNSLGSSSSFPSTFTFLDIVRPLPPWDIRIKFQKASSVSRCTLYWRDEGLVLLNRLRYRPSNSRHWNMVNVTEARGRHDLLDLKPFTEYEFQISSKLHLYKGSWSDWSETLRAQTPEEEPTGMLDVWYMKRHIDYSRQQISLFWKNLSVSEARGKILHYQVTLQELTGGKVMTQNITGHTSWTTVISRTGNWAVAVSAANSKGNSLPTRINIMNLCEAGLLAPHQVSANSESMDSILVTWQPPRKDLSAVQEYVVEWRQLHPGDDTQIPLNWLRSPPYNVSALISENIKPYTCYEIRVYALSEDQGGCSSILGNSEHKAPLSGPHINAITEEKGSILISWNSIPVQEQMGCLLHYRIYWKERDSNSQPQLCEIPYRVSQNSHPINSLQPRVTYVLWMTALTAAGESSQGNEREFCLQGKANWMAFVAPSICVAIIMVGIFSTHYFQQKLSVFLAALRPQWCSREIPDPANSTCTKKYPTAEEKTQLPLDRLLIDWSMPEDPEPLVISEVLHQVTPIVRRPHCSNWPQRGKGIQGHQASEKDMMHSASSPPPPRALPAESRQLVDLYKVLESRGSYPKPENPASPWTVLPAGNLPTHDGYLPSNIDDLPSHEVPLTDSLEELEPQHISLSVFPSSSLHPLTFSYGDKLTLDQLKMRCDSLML

[3] = molecular target: T3, human IL-12RB2 with C-terminal HA tag, transiently expressed on HEK-293T cells (human, UniProt Q99665 24-862); experiment: FACS, periplasmic extract, HEK-293T
T3 construct: whole, on cells; also called human IL-12Rβ2
T3 sequence (looked up): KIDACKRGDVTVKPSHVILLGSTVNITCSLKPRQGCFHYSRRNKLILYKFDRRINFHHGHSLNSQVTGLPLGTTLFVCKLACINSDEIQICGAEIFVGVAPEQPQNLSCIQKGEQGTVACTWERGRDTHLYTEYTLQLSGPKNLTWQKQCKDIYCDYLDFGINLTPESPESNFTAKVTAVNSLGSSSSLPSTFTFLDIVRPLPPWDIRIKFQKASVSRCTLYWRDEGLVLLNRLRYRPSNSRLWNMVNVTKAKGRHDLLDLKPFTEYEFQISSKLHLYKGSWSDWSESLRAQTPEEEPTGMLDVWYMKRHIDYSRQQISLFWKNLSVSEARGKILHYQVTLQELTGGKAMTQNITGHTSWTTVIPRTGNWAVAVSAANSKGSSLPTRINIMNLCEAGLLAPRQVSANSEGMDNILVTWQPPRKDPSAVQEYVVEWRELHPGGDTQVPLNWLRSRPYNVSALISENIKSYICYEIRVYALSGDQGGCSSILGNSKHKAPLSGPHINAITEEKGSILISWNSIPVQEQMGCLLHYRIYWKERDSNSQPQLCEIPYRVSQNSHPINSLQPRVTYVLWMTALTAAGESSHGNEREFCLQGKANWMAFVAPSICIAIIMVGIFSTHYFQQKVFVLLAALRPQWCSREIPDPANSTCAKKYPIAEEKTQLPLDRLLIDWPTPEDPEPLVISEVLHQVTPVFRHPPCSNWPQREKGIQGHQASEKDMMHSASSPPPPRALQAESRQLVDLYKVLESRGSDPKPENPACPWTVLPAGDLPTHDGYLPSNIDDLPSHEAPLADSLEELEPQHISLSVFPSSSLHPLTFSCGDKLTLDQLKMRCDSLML

Binder	OD450 nm [1]	FOB [2] [fold]	FOB [3] [fold]
B1	0.19	3.84	3.19
B2	2.1	4.18	2.71
B3	1.35	4.01	2.16
B4	1.67	3.21	1.99
B5	0.174	3.78	2.25
B6	2.13	3.47	2.25
B7	0.794	3.97	2.46
B8	3.19	2.88	1.91
B9	2.86	–	1.43
B10	2.99	2.31	1.64
B11	1.3	2.75	1.63
B12	0.961	1.28	3.17
B13	1.71	2.65	1.77
B14	0.626	3.16	1.95
B15	2.22	2.69	1.68
B16	0.308	–	2.05
B17	0.602	3.06	1.68
B18	2.2	3.19	1.98
B19	0.581	2.32	1.73
